Test results reported in patent US20230088269A1 (ARGENX BVBA, published 2023).
Substitutions are numbered along the chain they refer to. Numbers in names are those of the source.

How the values were obtained:
[1] = target: T1, human IL-22R expressed on cells (BW-hIL22R, Baf3-hIL22R/IL20Rb, transfected HEK, primary human skin cells) (human, UniProt Q8N6P7 16-574); assay: cell-based or functional assay
T1 sequence: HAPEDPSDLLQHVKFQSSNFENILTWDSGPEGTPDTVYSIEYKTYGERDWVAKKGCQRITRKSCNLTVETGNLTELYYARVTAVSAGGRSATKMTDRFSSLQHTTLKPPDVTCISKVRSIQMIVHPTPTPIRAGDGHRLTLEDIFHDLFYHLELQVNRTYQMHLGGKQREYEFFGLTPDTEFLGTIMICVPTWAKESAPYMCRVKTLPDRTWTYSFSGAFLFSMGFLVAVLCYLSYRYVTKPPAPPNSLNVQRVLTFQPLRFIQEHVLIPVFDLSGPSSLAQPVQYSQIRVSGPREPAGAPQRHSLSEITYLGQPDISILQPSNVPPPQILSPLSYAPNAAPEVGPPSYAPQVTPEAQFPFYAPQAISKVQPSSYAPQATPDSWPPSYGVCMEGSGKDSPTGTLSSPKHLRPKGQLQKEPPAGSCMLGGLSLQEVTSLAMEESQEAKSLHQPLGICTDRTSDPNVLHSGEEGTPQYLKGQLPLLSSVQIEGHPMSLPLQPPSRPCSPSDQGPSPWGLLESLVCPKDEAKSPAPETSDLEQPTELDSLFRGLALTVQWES

[2] = target: T2, recombinant mouse IL22R (monomeric, R&D Systems cat 4248-MR) (mouse, UniProt Q80XZ4 16-230); assay: summary table of cross-reactivity, mAb, column m = mouse
T2 construct: extracellular domain; also called murine IL-22R; mIL22R
T2 sequence (looked up): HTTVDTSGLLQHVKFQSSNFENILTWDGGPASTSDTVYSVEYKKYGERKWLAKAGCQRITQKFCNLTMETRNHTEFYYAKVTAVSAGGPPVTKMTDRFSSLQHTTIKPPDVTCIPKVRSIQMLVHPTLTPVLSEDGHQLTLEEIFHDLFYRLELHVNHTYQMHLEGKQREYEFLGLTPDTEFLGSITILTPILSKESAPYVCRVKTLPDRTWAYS

[3] = target: T1, human IL-22R expressed on cells …; assay: cell-based or functional assay; remark: listed apart in the source
[4] = target: T1, human IL-22R expressed on cells …; assay: cell-based or functional assay; remark: listed apart in the source
[5] = target: T3, cynomolgus monkey IL-22R in ex vivo skin biopsies (cynomolgus monkey, UniProt A0A2K5TKX9 16-573); assay: cell-based or functional assay
T3 sequence: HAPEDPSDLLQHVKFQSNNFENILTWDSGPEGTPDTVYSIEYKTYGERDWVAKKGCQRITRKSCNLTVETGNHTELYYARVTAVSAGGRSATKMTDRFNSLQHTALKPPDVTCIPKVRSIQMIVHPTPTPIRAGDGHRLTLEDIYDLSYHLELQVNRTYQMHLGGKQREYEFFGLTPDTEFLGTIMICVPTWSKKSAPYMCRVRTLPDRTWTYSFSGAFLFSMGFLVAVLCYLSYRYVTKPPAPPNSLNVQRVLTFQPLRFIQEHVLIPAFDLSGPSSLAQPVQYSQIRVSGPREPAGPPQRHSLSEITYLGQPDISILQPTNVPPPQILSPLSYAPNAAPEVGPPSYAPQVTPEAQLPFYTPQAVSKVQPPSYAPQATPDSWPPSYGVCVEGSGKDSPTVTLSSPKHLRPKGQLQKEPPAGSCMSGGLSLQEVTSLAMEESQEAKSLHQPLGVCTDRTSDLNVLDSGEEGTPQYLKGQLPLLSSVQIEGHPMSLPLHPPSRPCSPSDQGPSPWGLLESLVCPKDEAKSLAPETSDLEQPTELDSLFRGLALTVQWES

[6] = target: T4, recombinant human IL-22R (R&D Systems / Biotechne 2770-LR) (human, UniProt Q8N6P7 16-228); assay: SPR (Biacore), hIL22R on CM5 chip, mAb injected, 1:1 Langmuir
T4 construct: Bought soluble recombinant protein (said to be 25 kDa); also called hIL22R; IL-22R1
T4 sequence: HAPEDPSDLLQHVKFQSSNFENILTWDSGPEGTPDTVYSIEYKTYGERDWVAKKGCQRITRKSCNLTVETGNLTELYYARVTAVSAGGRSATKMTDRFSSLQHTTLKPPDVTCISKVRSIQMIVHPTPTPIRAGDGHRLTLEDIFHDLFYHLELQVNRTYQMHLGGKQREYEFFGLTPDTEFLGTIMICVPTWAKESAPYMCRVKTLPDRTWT
Method: (§1) The affinity of the 230C9 and 223G5 antibodies was measured using SPR ([…]). In brief, 250RU of human IL22R (Biotechne, 2770-LR) was coated onto a CM5 chip using standard methods (EDC coupling of IL22R at a concentration of 2 μg/ml in acetate buffer pH4.5). Then various concentrations of antibody were injected in HBSEP+ buffer (pH 7.4) for 2 minutes. The binding was monitored also during a 10 min washing (HBSEP+).

[7] = target: T4, recombinant human IL-22R (R&D Systems / …); assay: SPR (Biacore), mAb on chip, monomeric hIL22R injected, 1:1 Langmuir
Method: Because of the potential avidity effect observed when a bivalent molecule is used as a ligand during affinity measurement, a reverse experimental setup was tested. In this set-up, the antibodies were coated to 250RU using standard methods. Monomeric human IL22R was added at different concentrations, and the affinities calculated using the BIAevaluation software using a Langmuir 1:1 fitting are shown in Table 21 below.

[8] = target: T1, human IL-22R expressed on cells …; assay: cell-based or functional assay; remark: listed apart in the source
[9] = target: cynoIL22R_ECD-humanTM_humanICD chimera on transfected cells (cynomolgus monkey; human, UniProt Q8N6P7 229-574); assay: cell-based or functional assay
[10] = target: rhesus IL22R ECD - human TM - human ICD chimera on transfected HEK cells (rhesus monkey; human, UniProt Q8N6P7 229-574); assay: cell-based or functional assay
[11] = target: T1, human IL-22R expressed on cells …; assay: cell-based or functional assay; remark: listed apart in the source
[12] = target: T5, rhIL22R-Fc (rhesus IL22R ECD fused to human Fc) (rhesus monkey, UniProt G7MHN4 16-228); assay: off-rate of Fab fragment; method not stated
T5 construct: also called rhesus IL-22R1
T5 sequence: T4 sequence with S18N, L73H, S99N, T105A, S115P, K167E, A194S, E196K, K205R

[13] = target: T4, recombinant human IL-22R (R&D Systems / …); assay: off-rate of Fab fragment; method not stated; Fab fragment; human IL-22R1
[14] = target: T2, recombinant mouse IL22R (monomeric, R&D …); assay: SPR (Biacore), purified Fab
[15] = target: T4, recombinant human IL-22R (R&D Systems / …); assay: SPR (Biacore), purified Fab
[16] = target: T6, human IL-22R A209D mutant on BW cells (human, UniProt Q8N6P7 16-574); assay: FACS, BW-hIL-22R mutant cells
T6 sequence: T1 sequence with A194D
Method: The binding of IL22R antibodies and of the benchmark antibody (280.346.TSY) to BW cells over-expressing various IL22R mutants was tested. The IL22R mutants have mutations of amino acids known to be involved in the IL-22/IL22R interaction. In this setup, the antibodies were biotinylated, added to the cells and binding of the antibody to IL22R was detected with labeled streptavidin by Flow cytometry (FACS).
FACS analysis was also carried out as described in Example 8.2 to study the binding of the germlined antibodies to various IL-22R mutants.

[17] = target: T4, recombinant human IL-22R (R&D Systems / …); assay: SPR (Biacore), hIL22R on CM5 chip, mAb injected; rounded range told of 223G5 and 224C4
Method: as §1

B1: 218A7 mAb (antibody, V domains shown)
VH: QVQLVESGGGLVQPGGSLRLSCAASGFTFSSYDMSWVRQAPGKGLEWVSSIYNDGSNTAYSDSVKGRFTISRDNAKNTLYLQMNSLKSEDTAVYYCAKVGFSGTYYSESWGQGTQVTVSS
VL: LPVLTQPSAVSVSLGQTARITCQGGYYAHWYQQKPGQAPVLVIYGQNNRPSGIPERFSGSGAGNTATLTISGAQAEDEAEYYCQSGSSSANAVFGGGTKLTVL
notes: VH family 4; light chain shuffled variant of 157A2, not germlined
IC50 blocking IL-22 (pM), BW hIL22R proliferation [1]: 360 pM
binding result [2]: no binding
IC50 blocking IL-22 (nM), BWhIL22R cell line [3]: 0.28 nM
Relative potency to 280.346.TSY (IL-22, BWhIL22R cell line) [3]: 2.5 fold

B2: 230C9 mAb (antibody, human IgG1, lambda, N297Q, V domains shown)
VH: B1 VH with S35N, G55A, A75S, K87R, S88A, Q115L
VL: SYELTQPSSVSVALGQTARITCQGGYYAHWYQQKPGQAPVLVIYGQNNRPSGIPERFSGSGAGNTATLTISRAQAEDEADYYCQSGSSSSNAVFGGGTKLTVLG
notes: Germlined variant of 218A7; also called 230C9-N297Q; 230C9 N297Q
EC50, inhibition of CCL2 levels in primary human keratinocytes stimulated with IL-4, IL-13, IL-22 and IFN-gamma [4]: 0.1 nM
EC50, reduction of rhIL-22 induced DEFB4 mRNA in human ex vivo skin explants [4]: 4 nM
EC50, block of rhIL-22 down-regulation of FLG2 and LOR mRNA in cynomolgus skin biopsies [5]: 11 nM
Kd [6]: 0.13 nM
koff [6]: 8.9e-05 s⁻¹
kon [6]: 680000 M⁻¹ s⁻¹
Kd [7]: 0.22 nM
koff [7]: 0.00022 s⁻¹
kon [7]: 920000 M⁻¹ s⁻¹
IC50 blocking IL-22 (nM), BWhIL22R cell line [3]: 0.56 nM
Relative potency to 280.346.TSY (IL-22, BWhIL22R cell line) [3]: 1.2 fold
EC50 (nM), STAT3-reporter in HEK cells after human IL22, Human ECD [8]: 0.28 nM
EC50 (nM), STAT3-reporter in HEK cells after human IL22, Cyno ECD [9]: 0.57 nM
EC50 (nM), STAT3-reporter in HEK cells after human IL22, Rhesus ECD [10]: 0.48 nM
IC50 blocking IL-20 (nM), Baf3hIL22R/IL20Rb cell line; batch #1 [11]: 0.781 nM
IC50 blocking IL-20 (nM), Baf3hIL22R/IL20Rb cell line; batch #2 [11]: 0.567 nM
Relative potency to 280.346.TSY (IL-20); batch #1 [11]: 1.9 fold
Relative potency to 280.346.TSY (IL-20); batch #2 [11]: 2.6 fold

B3: 166G8 Fab (Fab, V domains shown)
VH: QVQLVESGGGLVQPGDSLRLSCAASGFTFGSYFMSWVRQAPGKGPEWVSGIHISGGITYYLDSVKGRFTISRDNAKNTLYLQMNNLKPEDTAVYYCVTPPGPFKAHYNGMKYWGKGTLVTVSS
VL: NFMLTQPPSVSGTLGKTVTISCTGTSRDIGDYNYVSWYQQLPGLAPKLLIYKVNTRSSGTPDRFSGSKSGNTASLTISGLQSEDEADYYCASYRLYADYVFGGGTHLTVL
notes: VH family 5; purified llama Fab
koff [12]: 0.0222 s⁻¹
koff [13]: 0.00122 s⁻¹
binding result [14]: no binding
koff [15]: 0.00088 s⁻¹

B4: 223G5 mAb (antibody, human IgG1, lambda, N297Q, V domains shown)
VH: B3 VH with D16G, G30S, L61T, N85S, K87R, P88A, M110A
VL: QSALTQPPSVSGSPGQSVTISCTGTSSDIGSYNYVSWYQQLPGKAPKLLIYEVNKRSSGVPDRFSGSKSGNTASLTISGLQAEDEADYYCASYRLYADYVFGGGTQLTVLG
notes: Germlined variant of 166G8; also called 223G5-N297Q
binding result [16]: no binding
Kd [6]: 0.016 nM
koff [6]: 0.0001 s⁻¹
kon [6]: 6.6e+06 M⁻¹ s⁻¹
Kd [17]: 0.01 to 0.02 nM
